Measurements published in article PMC2975025 (Developmental cell, 2010).
Numbering of substitutions follows the chain as printed.

T1: KR-mutant CHC hub (K1163E and R1165D) (bovine, UniProt P49951 1074-1675, K1163E | R1165D)
T1 sequence (looked up): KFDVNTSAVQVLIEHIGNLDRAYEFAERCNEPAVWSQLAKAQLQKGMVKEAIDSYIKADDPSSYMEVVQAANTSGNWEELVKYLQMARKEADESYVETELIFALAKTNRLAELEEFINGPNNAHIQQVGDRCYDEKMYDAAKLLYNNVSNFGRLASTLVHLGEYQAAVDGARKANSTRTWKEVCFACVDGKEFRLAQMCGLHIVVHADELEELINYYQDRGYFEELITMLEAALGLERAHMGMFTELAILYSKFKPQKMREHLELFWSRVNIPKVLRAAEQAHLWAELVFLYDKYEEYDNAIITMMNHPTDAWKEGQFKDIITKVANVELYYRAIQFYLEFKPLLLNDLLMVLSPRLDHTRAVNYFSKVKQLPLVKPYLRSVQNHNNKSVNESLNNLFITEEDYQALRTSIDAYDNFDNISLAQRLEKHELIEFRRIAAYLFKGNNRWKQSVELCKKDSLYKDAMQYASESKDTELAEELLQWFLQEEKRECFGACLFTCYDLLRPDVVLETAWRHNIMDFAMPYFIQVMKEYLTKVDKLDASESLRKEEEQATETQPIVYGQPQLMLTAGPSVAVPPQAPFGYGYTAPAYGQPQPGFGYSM

B1: Bovine clathrin heavy chain residues 1074–1675 (hub), wild type (domain or fragment, UniProt P49951 1074-1675, looked up)
chain: T1 sequence (looked up) with E90K, D92R
B2: Human neuronal LCb, his-tagged fusion protein, wild type (natural protein, UniProt P09497 1-229, looked up)
chain: MADDFGFFSSSESGAPEAAEEDPAAAFLAQQESEIAGIENDEGFGAPAGSHAAPAQPGPTSGAGSEDMGTTVNGDVFQEANGPADGYAAIAQADRLTQEPESIRKWREEQRKRLQELDAASKVTEQEWREKAKKDLEEWNQRQSEQVEKNKINNRIADKAFYQQPDADIIGYVASEEAFVKESKEETPGTEWEKVAQLCDFNPKSSKQCKDVSRLRSVLMSLKQTPLSR

Tests used:
[1] = target: the molecule itself; assay: crystal structure
[2] = target: B1; assay: SPR
[3] = target: T1, KR-mutant CHC hub (K1163E and R1165D); assay: SPR

Row | Kd [2] [nM] | Kd [3] [nM] | Binder | stoichiometry N [1]
1 |  |  | B1 | 3
2 | 25 | 59.1 | B2 | 
